We go through 41 sequences from the nanobody polyreactivity screen of Harvey et al. (2022).

The nature of this series: yeast display, Sf9 membrane polyspecificity reagent, FACS + sequencing; frameworks hold sequencing errors. A digest of the protocol:
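Nanobodies from a synthetic yeast display library (Saccharomyces cerevisiae BJ5465), induced 36–48 hours with galactose, were stained 1 hour at 4 °C with 10% biotinylated, detergent-solubilized Sf9 membrane reagent, enriched on streptavidin microbeads, then FACS-sorted. Anti-HA (expression) and streptavidin (reagent binding) fluorescence set low and high (top ~1%) gates. Polyreactivity labels come from the gate of origin. Genes were colony-PCR amplified, MiSeq 2 × 250 sequenced and filtered by CDR length.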
As for “QVQLVESGGGLVQAGGSLRLSCAASGRIFSSYVMGWYRQAPGKERELVAAIRWSGGSTYYADSVKGRFTISRDNAKNTVYLQMNSLKPEDTAVYYCAARHVLYGYYLYDYWGQGTQVTVSS”, the “polyreactivity (PSR sort gate)” value was “high polyreactivity”.

Take “QVQLVESGGGLVQAGGSLRLSCAASGRIFSTNAMGWYRQAPGKEWELVAAITRGVSTKYADSVKGRFTISRDNAKNTVYLQMNSLKPEDTAVYYCAARVVWGPESDYWGQGTQVTVSS”: the “polyreactivity (PSR sort gate)” value is listed as “low polyreactivity”.

As for “QVQLVESGGGLVQAGGSLRLSCAASGRIFSTYAMGWYRQAPGKERELVAAINKIGGSTYYADSVKGRFTISRDNAKNTDYLQMNSLKPEDSAVYYCAADAPYYPVRRYYYWGQGTQVTVSS”, the “polyreactivity (PSR sort gate)” value is “low polyreactivity”.

“QVQLVESGGGLVQAGGSLRLSCAASGRIFSVNAMGWYRQAPGTEREFVAAISWSGSSTYYADSVKGRFTSSRDNAKITVYLQMNSLKPEDTAVYYCNADIDFGTREVYYWGQGTQVTVSS”: the “polyreactivity (PSR sort gate)” value is listed as “low polyreactivity”.

Consider “QVQLVESGGGLVQAGGSLRLSCAASGRIFSVYAMGWYRQAPGKEREFVASISWRGGRTYYADSVKGRFTISRDNAKNTFYLQMNSLKPEDTAVYYCAAVSYPAVYGFDYWGQGTQVTVSS”, for which the “polyreactivity (PSR sort gate)” value is listed as “high polyreactivity”.

“QVQLVESGGGLVQAGGSLRLSCAASGRIFSVYGMGWYRQAPGKERELVAAMSSSAGSTNYADSVKGRFTISRDNAKNTVYLQMISLKPEDTAVYYCAAYYRRVVYYPTAYYIRKYDYWGQGSQVTVSS”: the “polyreactivity (PSR sort gate)” value is on record as “high polyreactivity”.

“QVQLVESGGGLVQAGGSLRLSCAASGRIFSWNTMGWYRQAPGKERELVAAISSSDGSTYYADSVKGRFTISRDNAKNTVYLQMNSVKPEDTAVYYCNKVVSRWNQRWRYSEGNYWGQGTQVTVSS”: the “polyreactivity (PSR sort gate)” value is reported as “high polyreactivity”.

Take “QVQLVESGGGLVQAGGSLRLSCAASGRIFSWYAMGWYRQAPGKERELVAAISASGSSTYYADSVKGRFTISRDNAKNTVYLQMNSLKPEDTAVYYCNTVSAYYARRSEGYDYWGQGTQVTVSS”: the “polyreactivity (PSR sort gate)” value is reported as “high polyreactivity”.

“QVQLVESGGGLVQAGGSLRLSCAASGRIFSWYAMGWYRQAPGKERELVAAITVRGSTYYADSVKGRFTISRDNAKNTVYLQMNSLKPEDTAVYYCAAKSSRYAYDYWGQGTQVTVSS”: the “polyreactivity (PSR sort gate)” value is “low polyreactivity”.

On to “QVQLVESGGGLVQAGGSLRLSCAASGRIFSWYAMGWYRQAPGKERELVARITTRGGNTYYADSVKGRFTFSRDNAKNTVYLQMNSLKPEVTAVYYCAARHPYPIYDYWGQGTQVSVSS”, for which the “polyreactivity (PSR sort gate)” value was “low polyreactivity”.

With “QVQLVESGGGLVQAGGSLRLSCAASGRIFSYFAMGWYRQAPGKEWELVAASSGNGGSTYYADSVKGRFTISRDNAKNTVYLHMNSLKPEDTAVYYCAADWRSSDWAYLYPYSYDDWGQGTQVTVSS”, the “polyreactivity (PSR sort gate)” value is reported as “low polyreactivity”.

Take “QVQLVESGGGLVQAGGSLRLSCAASGRIFSYNAMGWYRQAPGKERELVAAISSDGSTYYADSVKGRFTISRDNAKNTVYLQMNSLKPVDTAVYYCAARQVVWFDYTTAQVGSYKVNYWGQGTQVTVSS”: the “polyreactivity (PSR sort gate)” value is recorded as “low polyreactivity”.

For “QVQLVESGGGLVQAGGSLRLSCAASGRIFSYNAMGWYRQAPGKERELVAAISTGTSTYYADSVKGRFTISGDNAKNTVYLQMNSLKPEDTAVYYCAVDAYYWYQWYDYWGQGTQVTVSS”, the “polyreactivity (PSR sort gate)” value is given as “low polyreactivity”.

With “QVQLVESGGGLVQAGGSLRLSCAASGRIFSYNAMGWYRQAPGKERELVAAITFSGGGTYYADSVKGRFTISRDNAKYTVYLQMNSLKPEDTAVYYCNKVSYGYSTYGYWGQGTQVTVSS”, the “polyreactivity (PSR sort gate)” value is reported as “low polyreactivity”.

For the sequence “QVQLVESGGGLVQAGGSLRLSCAASGRIFSYNAMGWYRQAPGKERELVAPINTSGGSTYYADSVKGRFTISRDNAKNTVYLHMNSLKPEDTAVYYCNATLPVYWPYYYYQGGDDDWGQGTQVTVSS”, the “polyreactivity (PSR sort gate)” value is “low polyreactivity”.

Take “QVQLVESGGGLVQAGGSLRLSCAASGRIFSYNAMGWYRQAPGKERELVARINWSSGRTYYADSVKGRFTISRDNAKNTVYLQMNSLKPEDTAVYYCNRVSRGPVGGYYWGQGTQVTVSS”: the “polyreactivity (PSR sort gate)” value is “high polyreactivity”.

As for “QVQLVESGGGLVQAGGSLRLSCAASGRIFSYNAMGWYRQEPGKERELVASITSGGGRTYYADSVKGRFTISRDYAKNTVYLQMNSLKPVDTAVYYCAADGEVKYDYWGQGTQVTVSS”, the “polyreactivity (PSR sort gate)” value is “low polyreactivity”.

“QVQLVESGGGLVQAGGSLRLSCAASGRIFSYNDMGWYRQAPGKERELVAAISWNSGRTYYADSVKGRFTISRDNAKNTVYLQMNSLKPEDTAVYYCNAPYWKSRFRAYYHWGQGTQVTVSS”: the “polyreactivity (PSR sort gate)” value is on record as “high polyreactivity”.

For “QVQLVESGGGLVQAGGSLRLSCAASGRIFSYYAMGWYRQAPGKERELVAAISNGGNTYYADSVKGRFTISRDNAKNTVYLQMNSLKPEDTAVYYCYVRRYDYWGQGTQVTVSS”, the “polyreactivity (PSR sort gate)” value is listed as “high polyreactivity”.

Regarding “QVQLVESGGGLVQAGGSLRLSCAASGRIFSYYAMGWYRQAPGKERELVAAITSAGGTNYADSVKGRFTISRDNAKNTVYLQMNSLNPEDTAVYYCAAAKRDFVEYDYWGQGTQVTVSS”, the “polyreactivity (PSR sort gate)” value was “low polyreactivity”.

On to “QVQLVESGGGLVQAGGSLRLSCAASGRIFSYYAMGWYRQAPGKERELVAVISRRGDNTYYADSVKGRFTISRDNAKNTVYLQMNSLKPEDTAVYYCAVQFVFIFYYGYDYWGQGTQVTVSS”, for which the “polyreactivity (PSR sort gate)” value is “high polyreactivity”.

With “QVQLVESGGGLVQAGGSLRLSCAASGRIFSYYDIGWYRQAPGKERELVAAITGGGRTIYADSVKGRFTISRDNAKNTVYLQMNILKTEDTAVYYCNARARSRKFYYWGQGTQVTVSS”, the “polyreactivity (PSR sort gate)” value is reported as “high polyreactivity”.

Consider “QVQLVESGGGLVQAGGSLRLSCAASGRIFTANAMGCYIQAPGKERELVAAISWRGGSTYYADSVKGRFTISRDNAKNTVYLQMNSLKPEDTAVYYCNKVGATWRQWFGYWGQGTQVTVSS”, for which the “polyreactivity (PSR sort gate)” value is listed as “high polyreactivity”.

As for “QVQLVESGGGLVQAGGSLRLSCAASGRIFTGNAMGWYRQAPGKERELVAAISRRGTRTYYADSVKGRFTISRDNAKNTVYLQMNSLKPEDTAVYYCATRPGYWRYEYWGQGTQVTVSS”, the “polyreactivity (PSR sort gate)” value is on record as “high polyreactivity”.

On to “QVQLVESGGGLVQAGGSLRLSCAASGRIFTGNVMRWYRQAPGKERELVAAISYGGGSTNYSDSVKGRFTISRDNAKNTVYLQMNSLKQEDTAVYYCAACIKRYLSYYTRYGYWGQGTQVTVSS”, for which the “polyreactivity (PSR sort gate)” value is given as “high polyreactivity”.

With “QVQLVESGGGLVQAGGSLRLSCAASGRIFTGYAMGWYRQAPGKERELVAAINWSGGSTYYADSVKGRFTISRDNAKNTVYLQMNSLKPADTAVYYCNAGYVFSGSYYKYDYWGQGTQVTVSS”, the “polyreactivity (PSR sort gate)” value was “high polyreactivity”.

Regarding “QVQLVESGGGLVQAGGSLRLSCAASGRIFTGYTMGWYRQAPGKERELVAGITGSSGSTYYADSVKGRFTISRDNAKNTVYLQMNSLKPEDTAVYYCAAGRRYRSVGYGYWGQGTQVTVSS”, the “polyreactivity (PSR sort gate)” value is listed as “high polyreactivity”.

For “QVQLVESGGGLVQAGGSLRLSCAASGRIFTHNAMGWYRQAPGKERELVAAITSGGRTTYADSVKGRFTFSRDNAKNTVYLQMIRLKPEDTAVYYCNADTGLGSLDFDNRDYWGQGTQVTVSS”, the “polyreactivity (PSR sort gate)” value was “low polyreactivity”.

On to “QVQLVESGGGLVQAGGSLRLSCAASGRIFTHNAMGWYRQAPGKERELVAAITSGGRTTYADSVKGRFTISRDNAKNTVYFQMNSLKPEDTAVYYCNADTGLGSLDFDKRDYWGQGTQVTVSS”, for which the “polyreactivity (PSR sort gate)” value is on record as “low polyreactivity”.

As for “QVQLVESGGGLVQAGGSLRLSCAASGRIFTINAMGWYRQAPGKERELVAAITGSAASTYYADSVKGRFTISRDNAKNTVYLQMNSLKPEDTAVYYCAAGYRRIPYEYWGQATQVTVSS”, the “polyreactivity (PSR sort gate)” value is reported as “high polyreactivity”.

For “QVQLVESGGGLVQAGGSLRLSCAASGRIFTIYAMGWYRQAPGKERELVAAISDRGTRTYYADSVKGRFTISRDNAKNTVYLQMNSLKPEDTAVYYCATDALYTYGYDYWGQGTQVTVSS”, the “polyreactivity (PSR sort gate)” value is reported as “low polyreactivity”.

As for “QVQLVESGGGLVQAGGSLRLSCAASGRIFTIYAMGWYRQAPGKERELVATISRRGGSTYYADSVKGRFTISRDNSKNTVYLQMNSLKPEDTAVYYCAAESVITWWAYDYWGQGTQVTVSS”, the “polyreactivity (PSR sort gate)” value is “high polyreactivity”.

Turning to “QVQLVESGGGLVQAGGSLRLSCAASGRIFTIYVMGWYRPAPGKERELVATITYSSGSTSYADSVKGRFTISRDNAKNTVYLQMNSLKPEDTAVYYCATDIHSVHNNRDKHDYDYWGQGTQVSVSS”, the “polyreactivity (PSR sort gate)” value was “low polyreactivity”.

With “QVQLVESGGGLVQAGGSLRLSCAASGRIFTKNTMGWYRQAPGKERELVAAIRSRAGSTYYADSVKGRFTISRDNAKNTVYLQMNSLKPEDTAVYYCAVPWFRSVDFDYWGQGTQVTVSS”, the “polyreactivity (PSR sort gate)” value is given as “low polyreactivity”.

With “QVQLVESGGGLVQAGGSLRLSCAASGRIFTKYPMGRYRQATGKERELVAAITSGGRTYYADSVKGRFTISRDNAKNTVYLQMNSLKPEDTAVYFCAARYVQVVRKFGFRGQGTQVTVSS”, the “polyreactivity (PSR sort gate)” value is reported as “high polyreactivity”.

As to “QVQLVESGGGLVQAGGSLRLSCAASGRIFTLYDMGWYRQAPGKERELVAAISNSAGSTYYADSVKGRFTISRDNAKNTVYLQMNSLKPEDTAVYYCAAELWSWWGSRDYWGQGTQVTVSS”, the “polyreactivity (PSR sort gate)” value was “high polyreactivity”.

For “QVQLVESGGGLVQAGGSLRLSCAASGRIFTNNAMGWYRQAPGKERELVAAISKRGGSTYYADSVKGRFTISRDNAKNTVYLQMNSLKPEDTAVYYCNAREYIHWRGALGLFGSWGQGTQVTVSS”, the “polyreactivity (PSR sort gate)” value is “high polyreactivity”.

With “QVQLVESGGGLVQAGGSLRLSCAASGRIFTNNAMGWYRQAPGKERELVAAISRSGGRTYYADSVKGRFTISRDNAKNTVYLQMNSLKPEDTAVYYCAAVHLYYGYNSPFTMDYWGQGTQVTVSS”, the “polyreactivity (PSR sort gate)” value is “high polyreactivity”.

As to “QVQLVESGGGLVQAGGSLRLSCAASGRIFTNNAMGWYRQEPGKERELVAAISRSGGRTYYADSVKGRFTISRDIAKNTVYLQMNSLKPEDTAVYYCAAVHLFYGYNSPFTMDYWGQGTQVTVSS”, the “polyreactivity (PSR sort gate)” value is listed as “high polyreactivity”.

For the sequence “QVQLVESGGGLVQAGGSLRLSCAASGRIFTNYAMGWYRQAPGKERELVATINGGGITNYADSVKVRFTISRDNAKNTVYLQMNSLKPEDNAVYYCATDRLSYGYKPGYTFYYWEQGTQVTVSS”, the “polyreactivity (PSR sort gate)” value is given as “high polyreactivity”.

Take “QVQLVESGGGLVQAGGSLRLSCAASGRIFTPYAMGWYRKAPGKERELGAVIRDGSTYYADSVKGRFTISRDNAKNTVYLQMNRLKPEDTAVYYCAAVNYYDQYGDYYWGQGTQVTVSS”: the “polyreactivity (PSR sort gate)” value is listed as “low polyreactivity”.
